Source: the nanobody polyreactivity screen of Harvey et al. (2022)

Test: yeast display, Sf9 membrane polyspecificity reagent, FACS + sequencing; frameworks hold sequencing errors
Outline: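 Nanobodies came from a synthetic yeast display library in Saccharomyces cerevisiae BJ5465, induced with galactose for 36–48 hours and stained for 1 hour at 4 °C with 10% biotinylated, detergent-solubilized Sf9 membrane reagent. Cells were enriched on streptavidin microbeads and then FACS-sorted, with low and high (top ~1%) gates set on anti-HA fluorescence for expression and streptavidin fluorescence for reagent binding. Each polyreactivity label reflects the gate a clone came from. Genes were amplified by colony PCR, sequenced by MiSeq 2 × 250 and filtered by CDR length.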

Sequence	polyreactivity (PSR sort gate)
QVKLVDSGGGLVQAGGSLRLSCAASGRTFWNYAMGWYRQAPGKERELVAVIRFSDGSTYYADSVKGRFTISRDNAKNTVYLQMNSLKPEDTAVYYCAAKGPRRWGSGFDYWGQGTQVTVSS	low polyreactivity
QVQLGESGGGLCQAGGSLRLSCAASGSIIAGYTMGWYRPAPGNARELVAGIRRGGSTNYADSVKGRVTISRDNAKNTVYLQMNSLKPEDTAVYYCNAQLTRSYVLRTFDYWGQGTQVTVSS	high polyreactivity
QVQLVESGGGLVQAGASLRLSCSPSGRTFYYYAMGWYRPAPGKEREWVAAISQSGGSTYYADSVKGRFTISRDNAKKTVFLQMNSLKPEDTAVYYCKAYYGFGHRIYDFWGQGTQVTVSS	high polyreactivity
QVQLVESGGGLVQAGGSLRLSCAASGSTFGANAMGWYRQAPGKEREFVAAISRSGVRTYYADSVKGRFTISRDNAKNTVYLQMNSLKPEDTAVYYCAARFWYDYRHYDYWGQGTQVTVSS	low polyreactivity
QVQLVESGGGLVQAGGSLRLSCASSGSIFGSNAMGWYRQAPVKERELVAAITWSDGSTYYADSVKGRFTISRDNAKNTVYLQMNSLKPEDTAVYYCAVVWRGGYRWPYEYWGQGTQVTVSS	low polyreactivity
QVQLVESGGGLVQAGGSLRLICAASGSNFVGYAMGWYRQAPGKERELVAAISRTGASTYYADSVKGRFTISRDNAKNTVYLQMNSLKPEDTAVYYCAYYYSIYDYWGQGTQVTVSS	high polyreactivity
QVQLVESGGGLVQAGGSLRISCAASGYIFRFNAMGCYRPAPGKERELVAVITSGARTYYADSVKGRFTISRDNAKNTVYLQMNSLKPEDNAVYYCNAGARRYLYDYWGQGTQVTVSS	low polyreactivity
QVQLVESGGGLVQAGGSLRLSCAASGSTIYHNAMGWYRQAPGKERELVAAISSGGSTHYADSVKGRFTISRDNAKNTVYLQMNSLKPEDTAVYYCATYSSVRQLLWGNGYWGQGTQVTVSS	high polyreactivity
QVQLVESGGGLVQAGGSLRLSCAASGRIFKRYDMGWYRQAPGKERELVAAITGTGGSTYYADSVKGRFTISRDNAKNTVYLQMNSLKPEDTAVYYCAARLYNTYSGFAFGYWGQGTQVTVSS	high polyreactivity
QVQLVESGGGLVQAGGSLRISCDASGSTFSRYTLGWYRQAPVKEREMVAAISYRGGSTYYADSVKGRFTISRDNAKNTVYLQMNSLKPEDSAVYYCNADVPRIPYPDMEYWGQGTQVTVSS	low polyreactivity
QVHLVESGGGLVQAGGSLRLSCAASGSIFITYAMVWYRQAPGKERELVAAIRDSGDRTYYADSVKGRFTISRDNAKNTVYLQMNSLKPEDTAVYYCNARWQEPLKYDYWGQGTKVTVSS	low polyreactivity
QVQLVQSGGGLVQAGGSLRLSCAASGSTFLSKAMGWYRQAPWKERQLVAAITTSGTSTFYADSVKGRFTISRDNAKNTVYLQMNSLKPADTAVYCAKDYLPYLHFVAPSTGDYDYWGQGTQVTVSS	low polyreactivity
QVQLVESGGGIVHAGGSLRLSCAASGSTIDVYDMGWYRQAPGKERELVAAITTSGGGTYYADSVKGRFTISRDNAKNTVYLQMNRLKPEDTAVYYCAADTWRDGDDYWGQGTQVTVSS	low polyreactivity
QVQLVESGGGLVQAGGSLRLSCAASGSTFIYYARGWYRQAPGKERELVASISRSGGSPYYADSVKGRFTISRDNAKNTVYLQMNSLKPEATAVYDCARAYRSSFNYWGQGTQVTVSS	high polyreactivity
QVQLVESGGGLVQAGGSLRLSCAASGSIFGLYAMGWYRQAPGNERELVAAINQSGGSTSYADSVKGRFTISRDNAKNTVYLQMNSLKPEDTAVYYCAAKRSWGATRRAYGRYDYWGQGTQVTVSS	low polyreactivity
QVQLVESGGGVVQAGGSLRLSSAASGRIIRYYTMGWYRQAPGKERELVAAIRTYGGRTYYADSVKGRFTISRDNAKNSVYLQMNSLKPEDTAVYYCAADGGRPRYDSWGQGTQVTVSS	high polyreactivity
QVQHVESGGALVKAGGSLRIRCAASGITFSKYAMGWYRQAPGKEMELVAAITRSGGSTYYADSVKGRFTISRDNGKNTVYLQMNSLKPEDTAVYSCIARGYFTGGDGGSGYWGQVTQVTVSS	high polyreactivity
QVQLVESGGGLVQAGGSLRLSCAASGIIFGFYAMGWYREAPGKERELVADITNDGGNTNYADSVKGRFTISRDNAKNTVYLQMNSLKPEDTAVYYCNADRTQVRNRYTYATFDYWGQGTQVTVSS	low polyreactivity
QVQLVESGGGLVQAGGSLRLSCAASGSIFYSNAMGWYRQAPGKERELVAAITWSGGSTYYADSVKGRFTFSRDNAKNTVYLQKNSLKPEDTSVYYCNARRNVRQTFGYEDWGQGTQVTVSS	high polyreactivity
QVQLVESGGGLVQAGGSLRLSCAASGSTLGGNAMGWYRQEPGKERELGAAITSSAGSTYYADSVKGRYTISRDNAKNTVYLQMNSLQPEDTAVYYCAADYSRDEYDYWGQGTEVTVSS	low polyreactivity
QVQLVESGGGLVQAGGSLRLSCAASGSTFGSYTMGWYRQAPGKEREFVAAIRWIGGSTYYADSVKGRFTISRDNAKNTVYLQMNSLKPEDTAVYYCNAKRRKHGYYYWGQGTQVTVSS	high polyreactivity
QVQLVESGGGLVQAGGSLRLSCAASGFTFSSYAMGWYRQAPGKERELVAAISSSGSRTYYADSVKGRFTISRDNAKNTVYLQMNSLKPEDTAVYYCAARPGDGGYYYWGQGTQVTVSS	high polyreactivity

Sequence	polyreactivity (PSR sort gate)
QVQLVESGGGLVQAGGSLRLSCDASGSTFYPNAMGWYRQPPGKERELVAAITDSVCTTNYADSVKGRFTISRDNAKNTVYLQMNSLKPEDTAVYYCAKVKYYWNGYRYYYWGQGTQVTVSS	low polyreactivity
QVQLVESGGGLVQAGGSLRLSCAASGSSFVSYTMGWYRQAPGKERELVAAISYNGARTYYADSVKGRFTISRDNAKNTVYLQMNSLKPEDTAVYYCARRYYSQYDYWGQGTQVTVSS	high polyreactivity
QVQLVESGGGLVQAGGSLRLSCAASGITFYKNTMGWYRQAPGKERELVAAISSSGDNTFYADSVKGRFTISRDNAKNTVYLQMNSLKPEDTAVYYCATYRVINTIRGYYYTYDYWGQGTQVTVSS	high polyreactivity
QVQLVESGGGLVQAGGSLRLSCAASGSIFPNYAMGWYRQAPGKERELVAAISSSGGRTYYADSVKGRFTISRDNAKNTVYLQMNCLKPEDTAVYYCAADTYTSAQHEKYDYWGQGTQVTVSS	low polyreactivity
QVQLVESGGGLVQAGGSLRLSCAASGITFQNYAMGWYRQSPGKERELVAAITRSGGRTYYADSVKGRFTISRDNAKNTVYLQINSLKPEDTAVYYCAFYGIGRPYWYDYWGQGTQVTVSS	high polyreactivity
QVQLVESGGGLVQAGGSLRLSCAASGRIFSINVMGWYRHAPGKERELVAAISKRGGSTYYADSVKGRFTISRDNAKNTVYLQMNSLKPEDTAVYYCAARRHYTYGNGPSRGGQMDYWGQGTQVTVSS	high polyreactivity
QVQLVESGGGLVQGGGSLRLSCAASGIIFFNNVMGWYRLAPGKERELVAAITFSGSSTYYADSVKGRFTISRDNAKNTVYLQMNSLKTEDTAVYYCAAYRSGHGIIDYDSWGQGTQVTVSS	low polyreactivity
QVQLVESGGGLVQAGGSLRLSCAASGSTFIFNTMGWYRQAPGKEREVVASITGDGRTNYADSVKGRFTISRDNAKNTVYLQMNSLKPEDTAVYYCAADGYDQYPLWAPPGDYWGQGTQVTVSS	low polyreactivity
QVQLVESGGGLVQAGGSLRLSCAASGRIFDLYTMGWYRQAPGKERELVAAIRWSDGSTYYADSVKGRFTISRDNAKNTVYLQMNSLKPEDTAVYYCNRDPPRVLWYYLLSDSKLDSWGQGTQVTVSS	low polyreactivity
QVQLVESGGGLVQAGGSLRLICAASGSIFTSNVMGWYRQSPGKERELVAAITITGTTNYADSVKGRFTISRDNAKYTVYLLMNSLKPEDTAVYDCAARHKQHNRYDYWGQGTQVTVSS	low polyreactivity
QVQLVESGGGLVQAGGSLRLSCAASGFTFTKYAMGWYRQAPGKERELVAAITSSGGGTYYADSVKGRFTISRDYAKNTVYLQMNRLKPVDTAVYYCARDSRTGYYYWGQGTQVTVSS	high polyreactivity
QVQIVESGGGLVQAGRSLRLSCAASGRTFYRNAMGWYRQAPGKERELVAAITWRTGNTYFADSVKGRFTISRDNAKNTVYLQMNSLKQEDTAVYYCNRVPYYGHPFRVSGDYWGQCTQVTVSS	low polyreactivity
QVQLVETGGGLVQAGGSLRLSCAASGRIFKVYAMGWYRQAPGKERELDAAITSRGGSTYYADSVKGRFTISRDNAKNTVYLQMNSLKPEDTAVYYCAAARGLPSNKYYYWGQGTQVTVSS	high polyreactivity
QVQLVESGGGLVQAGGSLRLSCAASGRIFEPYAMGWYRQAPGNERELVAAINSGGSTNYADSVKGRFTISRDNAKNTVYLQMNSLKPEDTAVYYCAASVYGQHAGPGRWYTFYYWGQGTQVTVSS	low polyreactivity
QVQLVESGGGLFQAGGILILSFAASGNTLNYYTMGWYRQAPGKERELVAAISSSGGSTYYAESVKGSFTISRDYAKNTVYLHMNRLKPEDNAVYFCNDSVINEMNNWGQGTQVTVSS	low polyreactivity
KVQRVDSGGGLVQAGGSLRLSCAASGSILGPYAMGWYRQAPGKERELVAGISGSGTRTYYADSVKGRFTISRDNAKNTVYLQMNSLKPEDTAVYYCAARYYSSWFRYPSYDYWGQGTQVTVSS	high polyreactivity
QVRLVESGGGLVQAGGSLRLSCADSGSTLDINAMGWYTQAPGKERELVASISWTGGHTYYADSVKGRFTISRDNAKNTVYLQMNSLKPEDTAVYYCAATHQETVYYFLSIFDDWGQGTQVTLSS	low polyreactivity
QVQLVESGGGLVQAGGSLRLSCAASGRTFGFYTMGCYRQAPGKERELVAAISWRGGSTYYADSVKGRFTISRDNAKNTVYLQMYSLKPEDTAVYYCAVRTNFGKMYYWGQGTQVTVSS	high polyreactivity
QVQLVESGGGLVQAGGSLRLSCAASGITFGANAMGWYRQAPGKERELVAHITWSGGDTYYADSVKGRFTISRDNAKNTVYLQMNSLKPEDTAVYYCNALQPGLGSPLGEYDYWGQGTQVTVSS	low polyreactivity
QVQLVESGGGLVQAGGSLRLSCAASGSIFPNNAMGWYRQAPGKERELVAAISSSARTYYADSVKGRFTISRDNAKNTVYLQMNSLKPEDTAVYYCAARWYGRFLMGYWGQGTQVTVSS	high polyreactivity
QVQLVESGGGLVQAGGSLRLSCAASGSIFGAYAMGWYRQAPGKERELVAAISGSGTSTYYADSVKGRFTISRDNAKNTVYLQMYSLKPEDTAVYYCAADGTYFYIYLGDRFDYWGQGTQVTVSS	low polyreactivity
